In patent US9127040B2, “Regulation of sodium channels by PLUNC proteins” (The University of North Carolina at Chapel Hill, priority 2011, dated 2015):

Target: T1, αβγENaC (Rattus norvegicus, UniProt P37089+P37090+P37091, S518C)
T1 construct: expressed in transfected cells; host or cells: Xenopus laevis oocytes (cRNA injection)
T1 sequence (P37089 1-698): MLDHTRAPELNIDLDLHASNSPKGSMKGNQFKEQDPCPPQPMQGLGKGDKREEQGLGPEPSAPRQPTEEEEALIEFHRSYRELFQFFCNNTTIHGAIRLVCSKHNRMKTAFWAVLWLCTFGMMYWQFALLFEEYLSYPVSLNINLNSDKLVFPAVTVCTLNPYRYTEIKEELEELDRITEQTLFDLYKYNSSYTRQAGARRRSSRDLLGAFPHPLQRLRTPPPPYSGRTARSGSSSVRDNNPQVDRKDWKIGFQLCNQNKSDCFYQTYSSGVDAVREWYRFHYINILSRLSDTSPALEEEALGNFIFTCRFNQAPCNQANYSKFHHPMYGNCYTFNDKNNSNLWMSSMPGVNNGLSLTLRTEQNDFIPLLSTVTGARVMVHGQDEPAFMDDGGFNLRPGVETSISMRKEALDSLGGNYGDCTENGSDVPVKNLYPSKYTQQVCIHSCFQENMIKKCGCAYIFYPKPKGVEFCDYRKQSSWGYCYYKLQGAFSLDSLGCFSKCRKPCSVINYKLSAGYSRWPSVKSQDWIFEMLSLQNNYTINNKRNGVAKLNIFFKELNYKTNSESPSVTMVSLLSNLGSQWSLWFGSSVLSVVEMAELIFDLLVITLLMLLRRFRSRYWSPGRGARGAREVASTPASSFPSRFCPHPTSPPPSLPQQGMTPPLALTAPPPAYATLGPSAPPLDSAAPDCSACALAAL
T1 sequence (P37090 1-638 S518C): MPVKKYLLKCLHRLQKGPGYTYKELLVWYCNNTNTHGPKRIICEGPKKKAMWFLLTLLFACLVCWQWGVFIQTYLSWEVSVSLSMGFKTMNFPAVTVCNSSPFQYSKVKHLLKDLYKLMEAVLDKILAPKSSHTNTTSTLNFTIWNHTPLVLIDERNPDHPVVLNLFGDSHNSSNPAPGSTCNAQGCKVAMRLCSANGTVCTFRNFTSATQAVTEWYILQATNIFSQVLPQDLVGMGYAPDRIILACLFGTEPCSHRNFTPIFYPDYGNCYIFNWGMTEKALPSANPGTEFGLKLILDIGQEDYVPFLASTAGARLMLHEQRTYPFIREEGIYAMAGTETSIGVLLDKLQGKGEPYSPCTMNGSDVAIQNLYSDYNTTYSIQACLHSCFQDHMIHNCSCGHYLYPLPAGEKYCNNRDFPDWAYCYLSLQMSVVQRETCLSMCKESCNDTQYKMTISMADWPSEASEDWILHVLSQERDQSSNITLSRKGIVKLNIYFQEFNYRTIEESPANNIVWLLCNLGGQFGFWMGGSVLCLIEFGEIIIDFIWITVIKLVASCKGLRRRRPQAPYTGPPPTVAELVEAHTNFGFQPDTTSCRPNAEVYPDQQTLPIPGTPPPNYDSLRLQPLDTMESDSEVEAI
T1 sequence (P37091 1-650): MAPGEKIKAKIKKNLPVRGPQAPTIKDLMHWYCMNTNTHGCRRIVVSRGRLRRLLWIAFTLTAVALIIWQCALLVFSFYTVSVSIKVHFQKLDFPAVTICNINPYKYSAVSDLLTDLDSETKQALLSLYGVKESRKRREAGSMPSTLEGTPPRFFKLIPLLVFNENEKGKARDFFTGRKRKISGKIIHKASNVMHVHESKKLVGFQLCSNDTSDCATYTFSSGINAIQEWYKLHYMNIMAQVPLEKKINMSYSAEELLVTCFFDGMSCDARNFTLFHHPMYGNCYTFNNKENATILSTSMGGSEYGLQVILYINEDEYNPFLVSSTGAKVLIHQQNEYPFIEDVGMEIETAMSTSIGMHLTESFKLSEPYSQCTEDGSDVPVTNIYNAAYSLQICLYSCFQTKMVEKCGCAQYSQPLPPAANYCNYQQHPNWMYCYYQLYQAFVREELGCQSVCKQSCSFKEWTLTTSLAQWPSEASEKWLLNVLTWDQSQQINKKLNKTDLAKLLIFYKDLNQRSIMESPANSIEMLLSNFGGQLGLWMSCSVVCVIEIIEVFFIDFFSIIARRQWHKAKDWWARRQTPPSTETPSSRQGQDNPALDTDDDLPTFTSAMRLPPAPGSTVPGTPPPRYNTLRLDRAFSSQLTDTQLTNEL
Experiment: Amiloride-sensitive whole cell current, two electrode voltage clamp, Xenopus laevis oocytes expressing αβγENaC
Assay type: cell-based
Conditions: Po increased to 1.0 by MTSET; SPLUNC1 coexpressed

B1: SPLUNC1: human SPLUNC1 (SEQ ID NO:1), 256 amino acid secreted PLUNC family protein; rSPLUNC1 is the purified V5/6His-tagged recombinant form (protein, listed as Homo sapiens)
chain: MFQTGGLIVFYGLLAQTMAQFGGLPVPLDQTLPLNVNPALPLSPTGLAGSLTNALSNGLLSGGLLGILENLPLLDILKPGGGTSGGLLGGLLGKVTSVIPGLNNIIDIKVTDPQLLELGLVQSPDGHRLYVTIPLGIKLQVNTPLVGASLLRLAVKLDITAEILAVRDKQERIHLVLGDCTHSPGSLQISLLDGLGPLPIQGLLDSLTGILNKVLPELVQGNVCPLVNEVLRGLDITLVHDIVNMLIHGLQFVIKV
modifications: V5/6His tag in recombinant form
notes: rSPLUNC1 is the purified V5/6His-tagged recombinant form
  overall current of ENaC containing βS518C mutant after MTSET: still reduced
